Positions count from the first letter of the chain named. Names may count otherwise.
B1: Y217L: Arabidopsis FatA acyl-ACP thioesterase variant, substitution Y217L relative to SEQ ID NO: 1 (protein, listed as Arabidopsis thaliana)
chain: MLKLSCNVTDSKLQRSLLFFSHSYRSDPVNFIRRRIVSCSQTKKTGLVPLRAVVSADQGSVVQGLATLADQLRLGSLTEDGLSYKEKFVVRSYEVGSNKTATVETIANLLQEVGCNHAQSVGFSTDGFATTTTMRKLHLIWVTARMHIEIYKYPAWGDVVEIETWCQSEGRIGTRRDWILKDSVTGEVTGRATSKWVMMNQDTRRLQKVSDDVRDELLVFCPQEPRLAFPEENNRSLKKIPKLEDPAQYSMIGLKPRRADLDMNQHVNNVTYIGWVLESIPQEIVDTHELQVITLDYRRECQQDDVVDSLTTTTSEIGGTNGSATSGTQGHNDSQFLHLLRLSGDGQEINRGTTLWRKKPSS
B2: L218C: Arabidopsis FatA acyl-ACP thioesterase variant, substitution L218C relative to SEQ ID NO: 1 (protein, listed as Arabidopsis thaliana)
chain: B1 chain with L217Y, L218C
B3: S168R: Arabidopsis FatA acyl-ACP thioesterase variant, substitution S168R relative to SEQ ID NO: 1 (protein, listed as Arabidopsis thaliana)
chain: B1 chain with S168R, L217Y
B4: G114S: Arabidopsis FatA acyl-ACP thioesterase variant, substitution G114S relative to SEQ ID NO: 1 (protein, listed as Arabidopsis thaliana)
chain: B1 chain with G114S, L217Y
B5: F123N: Arabidopsis FatA acyl-ACP thioesterase variant, substitution F123N relative to SEQ ID NO: 1 (protein, listed as Arabidopsis thaliana)
chain: B1 chain with F123N, L217Y
B6: C221F: Arabidopsis FatA acyl-ACP thioesterase variant, substitution C221F relative to SEQ ID NO: 1 (protein, listed as Arabidopsis thaliana)
chain: B1 chain with L217Y, C221F
B7: N269Y: Arabidopsis FatA acyl-ACP thioesterase variant, substitution N269Y relative to SEQ ID NO: 1 (protein, listed as Arabidopsis thaliana)
chain: B1 chain with L217Y, N269Y
B8: F123C: Arabidopsis FatA acyl-ACP thioesterase variant, substitution F123C relative to SEQ ID NO: 1 (protein, listed as Arabidopsis thaliana)
chain: B1 chain with F123C, L217Y
B9: S168C: Arabidopsis FatA acyl-ACP thioesterase variant, substitution S168C relative to SEQ ID NO: 1 (protein, listed as Arabidopsis thaliana)
chain: B1 chain with S168C, L217Y
B10: F220H: Arabidopsis FatA acyl-ACP thioesterase variant, substitution F220H relative to SEQ ID NO: 1 (protein, listed as Arabidopsis thaliana)
chain: B1 chain with L217Y, F220H
B11: V121N: Arabidopsis FatA acyl-ACP thioesterase variant, substitution V121N relative to SEQ ID NO: 1 (protein, listed as Arabidopsis thaliana)
chain: B1 chain with V121N, L217Y
B12: N269W: Arabidopsis FatA acyl-ACP thioesterase variant, substitution N269W relative to SEQ ID NO: 1 (protein, listed as Arabidopsis thaliana)
chain: B1 chain with L217Y, N269W
B13: A118V: Arabidopsis FatA acyl-ACP thioesterase variant, substitution A118V relative to SEQ ID NO: 1 (protein, listed as Arabidopsis thaliana)
chain: B1 chain with A118V, L217Y
B14: A144Y: Arabidopsis FatA acyl-ACP thioesterase variant, substitution A144Y relative to SEQ ID NO: 1 (protein, listed as Arabidopsis thaliana)
chain: B1 chain with A144Y, L217Y

Assay: FatA enzymatic kinetic parameters with oleoyl-CoA as substrate
Type: biochemical
Details: Michaelis-Menten
Description: For the determination of FatA enzymatic kinetic parameters with oleoyl-CoA as substrate, assays are carried out essentially as described above for the testing of inhibitor compounds but with some changes to the method as follows. Oleoyl CoA is omitted from the assay master mix and added as a separate component to achieve final concentration of 40 μM, 23.5 μM. 13.8 μM, 8.1 μM, 4.8 μM, 2.8 μM and 1.7 μM (i.e. 1.7× dilution scheme). The level of enzymatic activity is determined from the slope of the progress curve (initial linear rates) using assay values measured at 0, 20, 40, 60, 90 and 120 s after addition of the enzyme. Kinetic parameters are then calculated using the Michaelis-Menten model as implemented in GraphPad Prism software.
FatA variant enzymes were prepared from 1 L E coli grows and assays carried out to determine enzyme kinetics as described in Example 1.

Question: Which “kcat (s^−1) - best fit” value does the source give for B1 here?
Answer: 1.7 s⁻¹

Question: Which “kcat (s^−1) - best fit” value does the source give for B2 here?
Answer: 1.1 s⁻¹

Question: For B3, which “kcat (s^−1) - best fit” value is on record?
Answer: 1.3 s⁻¹

Question: For B4, which “kcat (s^−1) - best fit” value is on record?
Answer: 2.3 s⁻¹

Question: With B5 as the molecule, how does the “kcat (s^−1) - best fit” value read?
Answer: 0.3 s⁻¹

Question: For B6, which “kcat (s^−1) - best fit” value is on record?
Answer: 1.5 s⁻¹

Question: With B7 as the molecule, how does the “kcat (s^−1) - best fit” value read?
Answer: 6.1 s⁻¹

Question: Which “kcat (s^−1) - best fit” value does the source give for B8 here?
Answer: 0.3 s⁻¹

Question: Which “kcat (s^−1) - best fit” value does the source give for B9 here?
Answer: 1.2 s⁻¹

Question: With B10 as the molecule, how does the “kcat (s^−1) - best fit” value read?
Answer: 2.0 s⁻¹

Question: Which “kcat (s^−1) - best fit” value does the source give for B11 here?
Answer: 0.8 s⁻¹

Question: With B12 as the molecule, how does the “kcat (s^−1) - best fit” value read?
Answer: 0.7 s⁻¹

Question: Which “kcat (s^−1) - best fit” value does the source give for B13 here?
Answer: 4.5 s⁻¹

Question: For B14, which “kcat (s^−1) - best fit” value is on record?
Answer: 11.5 s⁻¹

Same assay, conditions: Michaelis-Menten, read-out: Km (μM) - best fit

Question: For B1, which Km is on record?
Answer: 4.7 µM

Question: With B2 as the molecule, how does the Km read?
Answer: 0.8 µM

Question: With B3 as the molecule, how does the Km read?
Answer: 3 µM

Question: For B4, which Km is on record?
Answer: 2.8 µM

Question: Which Km does the source give for B5 here?
Answer: 14.6 µM

Question: Which Km does the source give for B6 here?
Answer: 4.3 µM

Question: For B7, which Km is on record?
Answer: 4 µM

Question: With B8 as the molecule, how does the Km read?
Answer: 4.8 µM

Question: Which Km does the source give for B9 here?
Answer: 6.2 µM

Question: Which Km does the source give for B10 here?
Answer: 3.2 µM

Question: Which Km does the source give for B11 here?
Answer: 7.1 µM

Question: For B12, which Km is on record?
Answer: 1 µM

Question: For B13, which Km is on record?
Answer: 2.4 µM

Question: With B14 as the molecule, how does the Km read?
Answer: 3.9 µM
